The source of these data is article PMC11745410.

This test addresses TAX9-loaded HLA-A*02:01/β2m. Kind of test: SPR. For orientation: SPR reads the build-up and loss of mass on a sensor chip optically.

For the substance “TAPBPR^∆G24-R36 (G24-R36 deletion) (from UniProt Q9BX59 22-405) (natural protein)”, the fold decrease in KD against TAPBPR^WT (so in the source) amounted to 3 fold.
As to “TAPBPR^∆ALAS (A29-S32 deletion) (from UniProt Q9BX59 22-405) (natural protein)”, the fold decrease in KD against TAPBPR^WT (so in the source) is 3 fold.
